Measured values as given in publication PMC4690014, “Functional Analysis of Cotton Leaf Curl Kokhran Virus/Cotton Leaf Curl Multan Betasatellite RNA Silencing Suppressors”.

Legend:
V2 (Trx-His fusion) = V2 (Trx-His fusion) (Cotton leaf curl Kokhran virus, UniProt Q6JIB8 1-118); assay: EMSA; details: protein: recombinant; tags: N-terminal Trx-His (pET32a); label: 5'-32P
TrAP (Trx-His fusion) = TrAP (Trx-His fusion) (Cotton leaf curl Kokhran virus, UniProt O72711 1-134); assay: EMSA; details: protein: recombinant; tags: N-terminal Trx-His (pET32a); label: 5'-32P

B1: 69 nt ssDNA (SalI-XbaI-HA-Tag oligo, by length) (ssDNA)
DNA: GCGTCGACGTCTTGCTCTAGAGATGTATCCATATGATGTTCCGGATTACGCGGAACGAGCTATACAAGG
Q: Which results are given for B1?
A: binding result (V2 (Trx-His fusion)): binds; binding result (TrAP (Trx-His fusion)): binds

B2: 21 nt ssDNA (ssDNA)
DNA: AGAGTGCCATGCCCGAAGGTT
Q: Does B2 bind (TrAP (Trx-His fusion))?
A: Result: binds

B3: 24 nt ssRNA (ssRNA)
RNA: AGAGUGCCAUGCCCGAAGGUUAUU
Q: Does B3 bind (TrAP (Trx-His fusion))?
A: Result: binds

B4: 21 nt ssRNA (ssRNA)
RNA: AGAGUGCCAUGCCCGAAGGUU
Q: Does B4 bind (TrAP (Trx-His fusion))?
A: Result: binds
